Results on one molecule are retold here after US20020086396A1 (Human Genome Sciences, published 2002).

This assay deals with T1, GST-αβ fusion protein (human, UniProt P52655 1-376).
T1 construct: Bacterially expressed and fixed to glutathione sepharose beads; not shown: glutathione-S-transferase (GST), fusion partner
T1 sequence (looked up): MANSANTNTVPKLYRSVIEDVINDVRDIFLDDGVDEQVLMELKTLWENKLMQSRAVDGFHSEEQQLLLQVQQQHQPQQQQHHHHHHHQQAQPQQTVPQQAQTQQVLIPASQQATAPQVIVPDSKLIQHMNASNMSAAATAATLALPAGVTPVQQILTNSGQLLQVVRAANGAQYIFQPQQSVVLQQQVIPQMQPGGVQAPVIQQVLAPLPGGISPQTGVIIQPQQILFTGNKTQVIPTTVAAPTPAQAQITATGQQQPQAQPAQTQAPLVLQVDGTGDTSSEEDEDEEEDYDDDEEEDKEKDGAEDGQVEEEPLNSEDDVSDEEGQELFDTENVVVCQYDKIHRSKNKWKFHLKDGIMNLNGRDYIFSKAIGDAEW
Description: GST pull-down, 35S-labelled protein on glutathione sepharose beads, autoradiography. The method, then:
Bacterial extracts of GST or GST fusion proteins were incubated with glutathione sepharose-4B beads (6-9 μg of GST-fusion protein/20 μl of beads) with shaking at […]. After 2 hours the beads were washed with 50 column volumes of cold buffer A (20 mM NaH₂PO₄ (pH 7.0) 150 mM NaCl, 1 mM DTT, 1 mM PMSF). Washed beads (20 μl) were then incubated with reticulocyte lysates containing 2×10⁴ cpm of ³⁵S labelled protein in 300 μl of protein binding buffer (PBB) for 1 hour at room temperature. PBB contained 20 mM Hepes (pH 7.9), 20% glycerol, 0.5 mM EDTA, 60 mM KCl, 5 mM MgCl2, 0.1% NP40, and 5 mM β-mercaptoethanol. The beads were subsequently washed 4 times in PBB and labeled proteins were eluted with 1M KCl. Samples were analyzed on 15% SDS polyacrylamide gels, enhanced with NaSalycilate, and visualized by autoradiography.

B1: 35S-labelled TFIIA αβ (large subunit of human TFIIA) (other, UniProt P52655 1-376, looked up)
chain: MANSANTNTVPKLYRSVIEDVINDVRDIFLDDGVDEQVLMELKTLWENKLMQSRAVDGFHSEEQQLLLQVQQQHQPQQQQHHHHHHHQQAQPQQTVPQQAQTQQVLIPASQQATAPQVIVPDSKLIQHMNASNMSAAATAATLALPAGVTPVQQILTNSGQLLQVVRAANGAQYIFQPQQSVVLQQQVIPQMQPGGVQAPVIQQVLAPLPGGISPQTGVIIQPQQILFTGNKTQVIPTTVAAPTPAQAQITATGQQQPQAQPAQTQAPLVLQVDGTGDTSSEEDEDEEEDYDDDEEEDKEKDGAEDGQVEEEPLNSEDDVSDEEGQELFDTENVVVCQYDKIHRSKNKWKFHLKDGIMNLNGRDYIFSKAIGDAEW
modifications: 35S label
notes: Made in reticulocyte lysate as 35S-labelled protein; also called αβ subunit; radiolabelled αβ
In the case of B1, the binding result is recorded as “no binding”.
